Data reported in patent publication US20120027773A1 (AVEO PHARMACEUTICALS, published 2012).

Assays:
[1] = biological target: T1, delta 160 RON variant (cell surface) (human, UniProt Q04912 25-1400); test: FACS, 10 ug/ml antibody, HT-29 cells, 4 C
T1 construct: whole, on cells; Splice variant; also called delta 160 variant
Method: Binding to cell surface wild-type RON and delta 160 RON at 4° C. was determined for antibodies 07F01, 12B11, 17F06, 18H09, and 29B06, using FACS. Cells expressing wild-type RON (PC3), and cells expressing delta 160 RON (HT-29), were harvested using cell dissociation buffer (Invitrogen), washed twice with FACS buffer (0.5% BSA PBS) and treated with CytoQ Antibody diluent and FC receptor block (Innovex). Purified antibodies were diluted at a concentration of 10 μg/ml, in FACS buffer. Cells were incubated with 100 μl of antibody mix for one hour, washed with FACS buffer three times, and incubated for 45 minutes with goat anti-mouse PE conjugated antibody (Jackson Immunoresearch Laboratories). Cells were washed three times with FACS buffer, resuspended in 300 μl of FACS buffer and analyzed using a Beckman Coulter Cytomics FC 500 FACS instrument.

[2] = biological target: T2, recombinant human RON-ECD/mFc fusion protein (human, UniProt Q04912 25-957); test: SPR, Ab captured on anti-mouse IgG, 25 C, AVG
T2 construct: extracellular domain; also called rhRON ECD/mFc; rhRon ECD/mFc; not shown: THXmFC: Thrombin/His tag/Factor Xa-AJ mouse IgG-Fc
Method: (§1) The binding affinities and kinetics of binding of antibodies 07F01, 29B06, 17F06, 18H09, and 12B11 to recombinant human RON-ECD/mFc fusion protein (rhRON ECD/mFc) and recombinant human RON SEMA and PSI domains (rhRON SEMA+PSI) (R&D Systems, Inc., Minneapolis, Minn.) were measured by surface plasmon resonance, using a Biacore T100 instrument (GE Healthcare, Piscataway, N.J.).
(§2) Rabbit anti-mouse IgGs (GE Healthcare) were immobilized on carboxymethylated dextran CM4 sensor chips (GE Healthcare) by amine coupling, according to a standard protocol. Analyses were performed at 25° C. and 37° C., using PBS containing 0.05% surfactant P20 as running buffer. The antibodies were captured in individual flow cells at a flow rate of 10 μl/min. Injection time was varied for each antibody to yield an Rmax between 30 and 60 RU. 250 μg/mL mouse Fc were injected at 30 μl/min for 120 seconds to block non-specific binding of antibodies to Fc portion of the protein when needed. Buffer, rhRon ECD/mFc or rhRON SEMA+PSI diluted in running buffer was injected sequentially over a reference surface (no antibody captured) and the active surface (antibody to be tested) for 300 seconds at 60 μl/minute. The dissociation phase was monitored for up to 3600 seconds. The surface was then regenerated with two 60-second injections of 10 mM Glycine-HCl, pH 1.7, at a flow rate of 60 μl/min. The rhRON ECD/mFc or rhRON SEMA+PSI concentration range tested was 0.625 nM to 20 nM.
(§3) Kinetic parameters were determined using the kinetic function of the BIAevaluation software (GE Healthcare) with double reference subtraction. Kinetic parameters for each antibody, kₐ (association rate constant), kd (dissociation rate constant) and KD (equilibrium dissociation constant) were determined.

[3] = biological target: human wild-type RON (cell surface) (human, UniProt Q04912 25-1400); test: cell-based or functional assay
[4] = biological target: T2, recombinant human RON-ECD/mFc fusion …; test: SPR, Ab captured on anti-mouse IgG, 37 C, AVG
Method: as §1, §2, §3

[5] = biological target: T3, recombinant human RON SEMA and PSI domains (human, UniProt Q04912 25-571); test: SPR, Ab captured on anti-mouse IgG, 37 C, AVG
T3 construct: domain: SEMA+PSI; Commercial protein (R&D Systems); also called rhRON SEMA+PSI; hRON SEMA+PSI
Method: as §1, §2

[6] = biological target: T3, recombinant human RON SEMA and PSI …; test: ECL competition, MSP binding to coated hRON SEMA+PSI; competitor MSP; average
Method: The biochemical neutralization assay measures inhibition of MSP binding to hRON by antibodies in hybridoma supernatants, using electrochemiluminescence (ECL). MA2400 96-well high binding plates (Meso Scale Discovery) were coated with 25 μl of 0.42 μg/mL hRON SEMA+PSI (an N-terminal portion of the ECD of hRON; R&D Systems) in PBS for one hour at room temperature with agitation. The plates were washed four times with PBS+0.1% Tween-20 (PBST), and blocked with 150 μl of charcoal-stripped fetal bovine serum (FBS) (Gibco). The hybridoma supernatant were added and incubated for 45 minutes at room temperature. After incubation, 5 μl of MSP (3 μg/mL) in charcoal stripped FBS was added to each well, and incubated for 45 minutes. The plate was washed four times with PBST, and 25 μl of 1 μg/mL biotinylated anti-MSP antibody (R&D Systems) was added to the plates for one hour at room temperature with agitation. The plates were washed four times with PBST, and incubated with 25 μl of 1 μg/mL ST-streptavidin (Meso Scale Discovery) for one hour at room temperature with agitation. The plates were washed four times with PBST, and 150 μl read buffer (Meso Scale Discovery) was added to each well before the plates were analyzed on a Sector Imager 2400 (Meso Scale Discovery) instrument. Antibodies 07F01, 18H09 and 29B06 each blocked MSP binding to hRON SEMA+PSI in this neutralization assay.
Antibodies 07F01, 12B11, 17F06, 18H09, and 29B06 were tested for inhibition of MSP binding to hRON SEMA+PSI, as measured by electrochemiluminescence (ECL) assay as described in Example 3. The antibodies (concentration range: 0.006-10 μg/mL) were incubated for 45 minutes at room temperature.

Binder | HT-29 % cell surface binding [1] | Kd [2] | koff [2] | kon [2] | Mean IC50 (nM), inhibition of MSP-dependent ERK phosphorylation, T47D cells [3] | Kd [4] | koff [4] | kon [4] | Kd [5] | koff [5] | kon [5] | Maximum Neutralization (%) [6]
07F01 (antibody, mouse IgG1, kappa, V domains shown, Murine hybridoma monoclonal, IgG1/kappa; also called mu07F01; antibody 07F01) VH: EVKLLESGGGLVQPGGSLKLSCAASGFDFSRHWMSWVRLAPGKGLEWIAEINPDSRTINYTPSLKEKFIISRDNAKNSLFLQMNRVRSEDTALYYCARRVRIHYYGAMDCWGQGTSVTVSS VL: DIVLTQSQKIVSTSVGARVSVTCKASQNVGSSLVWYQQKPGQSPKTLIYSASFRYSGVPDRFTGSGSGTDFTLTISNVQSEDLADYFCQQYNNYPLTFGAGTKLELKR | 99.1% | 230 pM | 9.3e-05 s⁻¹ | 400000 M⁻¹ s⁻¹ | 0.07 nM | 210 pM | 0.00035 s⁻¹ | 2.1e+06 M⁻¹ s⁻¹ | 400 pM | 0.0008 s⁻¹ | 2e+06 M⁻¹ s⁻¹ | 88.3%
29B06 (antibody, mouse IgG1, kappa, Murine hybridoma monoclonal, IgG1/kappa; also called mu29B06; antibody 29B06) heavy: EVQLQESGPSLVKPSQTLSLTCSVTGDSITSGYWNWIRKFPGNKLEYMGYISYSGKTYYNPSLKSRISITRDTSKNHYYLQLISVTAEDTATYYCARSKYDYAMDYWGQGTSVTVSSAKTTPPSVYPLAPGSAAQTNSMVTLGCLVKGYFPEPVTVTWNSGSLSSGVHTFPAVLQSDLYTLSSSVTVPSSTWPSETVTCNVAHPASSTKVDKKIVPRDCGCKPCICTVPEVSSVFIFPPKPKDVLTITLTPKVTCVVVDISKDDPEVQFSWFVDDVEVHTAQTQPREEQFNSTFRSVSELPIMHQDWLNGKEFKCRVNSAAFPAPIEKTISKTKGRPKAPQVYTIPPPKEQMAKDKVSLTCMITDFFPEDITVEWQWNGQPAENYKNTQPIMDTDGSYFVYSKLNVQKSNWEAGNTFTCSVLHEGLHNHHTEKSLSHSPGK light: not shown | 99% | 650 pM | 0.00013 s⁻¹ | 200000 M⁻¹ s⁻¹ | 0.44 nM | 280 pM | 0.0007 s⁻¹ | 2.3e+06 M⁻¹ s⁻¹ | 1300 pM | 0.00069 s⁻¹ | 520000 M⁻¹ s⁻¹ | 87.6%
